Experimental data reported in publication PMC5951972.

Target: MBP-TSR4+5, recombinant thrombospondin repeats 4 and 5 of human properdin expressed in tandem, fused to maltose-binding protein (human)
Experiment: SEC

percent migrating as dimer: 40%
stoichiometry N: 2
Substance: MBP-TSR4+5, recombinant thrombospondin repeats 4 and 5 of human properdin expressed in tandem, fused to maltose-binding protein (domain or fragment)
